# Results published in US20180079802A1.
# Biological target: CHIKV VLP
# Experiment: SPR (Biacore T100), VLP captured by mouse anti-CHIKV mAbs, Fab injected
binder,measurement,value
"3E23 Fab (Fab, V domains shown) VH: QVQLVQSGPGLVKPSDTLSLTCSVSSDALRSRSYYWGWVRQPPGKGLEWIGTVSYSGGTYYNPSLQSRVTVSVDTSKNHFSLRLNSVTAADAAVYYCARSYFYDGSGYYYLSYFDSWGQGTLVTVSS VL: QAVVTQEPSLTVSPGGTVTLTCASSTGAVTSGHYPNWFQQKPGQPPRALIYSTDNKHSWTPARFSGSLLGVKAALTLSDVQPEDEADYYCLLHFGGVVVFGGGTKLTVL",Kd,19.6 nM
same,koff,0.000393 s⁻¹
same,kon,20300 M⁻¹ s⁻¹
same,t1/2,29 min
"4J21 Fab (Fab, V domains shown) VH: QVQLVQSGSELKKPGASVKVSCKASGYSFTSYSINWVRQAPGQGPEWMGWIDTNTGNPTYAQDFAGRFVFSLDTSVTTAYLQISSLKAGDTAVYYCATYYVDLWGSYRQDYYGMDVWGHGTLVTVSS VL: QSVVTQPPSVSGTPGQGVTISCSGGSSNIGSNPVNWYQMVPGTAPKLLLYTNNQRPSGVPDRFSGSKSGTSASLAINGLQSEDEADYYCAVWDDSLSGRWVFGGGTKLTVL",Kd,9 nM
same,koff,0.00142 s⁻¹
same,kon,158000 M⁻¹ s⁻¹
same,t1/2,8 min
